From patent US20190270826A1 (Janssen / Centocor, published 2019)

What was measured:
[1] = target: T1, human IL1RAP on cells (endogenous) (human, UniProt Q9NPH3 21-570); assay: cell-based or functional assay
T1 sequence (looked up): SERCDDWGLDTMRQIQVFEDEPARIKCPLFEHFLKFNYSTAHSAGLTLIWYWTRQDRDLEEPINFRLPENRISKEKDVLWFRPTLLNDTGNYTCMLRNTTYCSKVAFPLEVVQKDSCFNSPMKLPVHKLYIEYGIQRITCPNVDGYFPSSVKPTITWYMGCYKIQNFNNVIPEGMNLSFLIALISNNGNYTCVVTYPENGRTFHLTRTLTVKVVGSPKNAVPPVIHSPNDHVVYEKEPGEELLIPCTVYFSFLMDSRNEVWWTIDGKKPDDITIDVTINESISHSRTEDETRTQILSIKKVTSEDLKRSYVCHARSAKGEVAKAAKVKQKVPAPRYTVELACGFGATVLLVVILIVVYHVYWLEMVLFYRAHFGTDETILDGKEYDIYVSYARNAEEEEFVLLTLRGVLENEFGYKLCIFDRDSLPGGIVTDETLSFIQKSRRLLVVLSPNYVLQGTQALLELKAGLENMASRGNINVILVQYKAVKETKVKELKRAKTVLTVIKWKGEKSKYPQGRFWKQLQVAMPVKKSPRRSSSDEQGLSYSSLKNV

[2] = target: T1, human IL1RAP on cells (endogenous); assay: cell-based or functional assay; remark: listed apart in the source
[3] = target: T2, human IL1RAP ECD displayed on HEK-293F cells (pDisplay) (human, UniProt Q9NPH3 21-367); assay: MSD cell binding, HEK-293F Human (clone HE2) cells displaying human IL1RAP ECD
T2 construct: also called Human clone HE2 IL1RAP FL-ECD cell line
T2 sequence: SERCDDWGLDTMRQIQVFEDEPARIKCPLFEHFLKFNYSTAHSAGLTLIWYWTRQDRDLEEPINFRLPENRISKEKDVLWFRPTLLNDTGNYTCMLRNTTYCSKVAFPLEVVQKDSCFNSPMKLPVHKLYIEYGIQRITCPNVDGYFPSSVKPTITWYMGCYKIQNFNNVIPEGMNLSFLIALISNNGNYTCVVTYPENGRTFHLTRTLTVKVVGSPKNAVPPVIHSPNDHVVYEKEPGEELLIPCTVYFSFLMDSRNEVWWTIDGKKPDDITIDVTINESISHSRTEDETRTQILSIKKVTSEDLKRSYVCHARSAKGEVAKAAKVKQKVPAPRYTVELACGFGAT
Method: (§1) Cells were immobilized and IL1RAP antibody samples were assayed in triplicate. Briefly, expression supernatants of purified IL1RAP antibodies were normalized to 10 μg/mL. 5000 cells per well were plated into a 384 well plate (MA6000, cat. L21XB, MSD) and allowed to adhere for 2 hr. Cells were then blocked with 20% FBS in PBS (Gibco) for 15 mins. Antibody supernatants were then added and left at RT for 1 hr. Cells were washed 3 times with PBS and a ruthenium labeled secondary antibody (Mesoscale Discovery) was then added at 2 μg/mL and incubated for 1 hour at room temperature. A further washing step was then applied and 35 μL per well of 2×MSD Read buffer T (surfactant free) was then added and incubated for 5-30 minutes for detection. Plates were then read using Sector Imager 2400 (MSD). Data was normalized to controls and graphed using GraphPad Prism Version 5. A positive binder was determined to be a hit with a signal 3× greater than parental cell line background.
(§2) The MSD cell binding assay described in Example 4 was used to assess IL1RAP binding.

human FcγRIIb = target: T3, human FcγRIIb (human, UniProt P31994 43-217, limits assumed); assay: AlphaScreen competition, human FcγRIIb (n=1); displaced: biotinylated control mAb B21M hIgG1 WT; pH 7.2
T3 construct: GST-tagged
T3 sequence (looked up): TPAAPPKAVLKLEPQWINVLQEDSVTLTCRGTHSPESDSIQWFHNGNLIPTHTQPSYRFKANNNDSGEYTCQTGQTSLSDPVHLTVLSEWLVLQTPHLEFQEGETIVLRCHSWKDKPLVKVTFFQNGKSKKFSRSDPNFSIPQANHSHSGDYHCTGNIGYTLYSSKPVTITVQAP
From the text: Measurements were made using an AlphaScreen™ assay (Amplified Luminescent Proximity Homogeneous Assay (ALPHA), PerkinElmer, Wellesley, Mass.), a bead-based luminescent proximity assay. Laser excitation of a donor bead excites oxygen, which if sufficiently close to the acceptor bead generates a cascade of chemiluminescent events, ultimately leading to fluorescence emission at 520-620 nm.

[4] = target: T1, human IL1RAP on cells (endogenous); assay: cell-based or functional assay; remark: listed apart in the source
[5] = target: T4, mouse IL1RAP ECD displayed on HEK-293F cells (pDisplay) (mouse, UniProt Q61730 21-367); assay: MSD cell binding, HEK-293F Mouse clone 5 cells displaying mouse IL1RAP ECD
T4 sequence: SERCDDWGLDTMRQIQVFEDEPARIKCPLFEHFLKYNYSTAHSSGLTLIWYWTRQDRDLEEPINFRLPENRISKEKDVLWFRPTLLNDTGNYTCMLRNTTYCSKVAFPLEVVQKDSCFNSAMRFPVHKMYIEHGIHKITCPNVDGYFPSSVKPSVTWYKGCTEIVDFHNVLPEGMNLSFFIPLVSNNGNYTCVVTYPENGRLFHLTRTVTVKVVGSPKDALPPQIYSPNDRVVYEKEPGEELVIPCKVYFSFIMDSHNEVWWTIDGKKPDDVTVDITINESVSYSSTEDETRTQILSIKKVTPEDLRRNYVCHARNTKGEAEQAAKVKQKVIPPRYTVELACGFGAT
Method: as §1, §2

[6] = target: T1, human IL1RAP on cells (endogenous); assay: cell-based or functional assay; remark: listed apart in the source

EC50 (read off the curve) [3]: ~1 µg/mL | binding result (human FcγRIIb): binds | EC50, caspase area/well AUC, Calu-3 with T cells, 72 h [4]: 716 pM | EC50, caspase area/well AUC, DU145 with T cells, 72 h [4]: 445 pM | EC50, caspase area/well AUC, H196 with T cells, 72 h [4]: 19 pM | EC50, caspase area/well AUC, H226 with T cells, 72 h [4]: 134 pM | EC50, caspase area/well AUC, H716 with T cells, 72 h [4]: 4 pM | EC50, caspase area/well AUC, H1975 with T cells, 72 h [4]: 13 pM | EC50, caspase area/well AUC, H2172 with T cells, 72 h [4]: 39 pM | EC50, caspase area/well AUC, H2228 with T cells, 72 h [4]: 43 pM | EC50, caspase area/well AUC, LNCAP with T cells, 72 h [4]: 39 pM | EC50, caspase area/well AUC, PC3 with T cells, 72 h [4]: 102 pM | EC50, caspase area/well AUC, Panc0213 with T cells, 72 h [4]: 192 pM | EC50, caspase area/well AUC, Panc0327 with T cells, 72 h [4]: 181 pM | EC50, caspase area/well AUC, SKMES-1 with T cells, 72 h [4]: 31 pM | EC50, caspase area/well AUC, SW1271 with T cells, 72 h [4]: 78 pM | binding result [5]: no binding (tested: 100 µg/mL) | mean EC50, T-cell activation, OCI-AML5 cells in whole blood, 48 h [6]: 5990 pM
B1: IC3B19 (bispecific antibody, human IgG4 S228P, kappa, lambda, F234A L235A)
heavy 1: EVQLVESGGGLVQPGGSLRLSCAASGFTFNTYAMNWVRQAPGKGLEWVARIRSKYNNYATYYAASVKGRFTISRDDSKNSLYLQMNSLKTEDTAVYYCARHGNFGNSYVSWFAYWGQGTLVTVSSASTKGPSVFPLAPCSRSTSESTAALGCLVKDYFPEPVTVSWNSGALTSGVHTFPAVLQSSGLYSLSSVVTVPSSSLGTKTYTCNVDHKPSNTKVDKRVESKYGPPCPPCPAPEAAGGPSVFLFPPKPKDTLMISRTPEVTCVVVDVSQEDPEVQFNWYVDGVEVHNAKTKPREEQFNSTYRVVSVLTVLHQDWLNGKEYKCKVSNKGLPSSIEKTISKAKGQPREPQVYTLPPSQEEMTKNQVSLTCLVKGFYPSDIAVEWESNGQPENNYKTTPPVLDSDGSFLLYSKLTVDKSRWQEGNVFSCSVMHEALHNHYTQKSLSLSLGK
light 1: QTVVTQEPSLTVSPGGTVTLTCRSSTGAVTTSNYANWVQQKPGQAPRGLIGGTNKRAPGTPARFSGSLLGGKAALTLSGVQPEDEAEYYCALWYSNLWVFGGGTKLTVLGQPKAAPSVTLFPPSSEELQANKATLVCLISDFYPGAVTVAWKADSSPVKAGVETTTPSKQSNNKYAASSYLSLTPEQWKSHRSYSCQVTHEGSTVEKTVAPTECS
heavy 2: not shown
light 2: DIQLTQSPSFLSASVGDRVTITCRASQGISSYLAWYQQKPGKAPKLLIYAASTLQSGVPSRFSGSGSGTEFTLTISSLQPEDFATYYCQQVNSYPLTFGGGTKVEIKRTVAAPSVFIFPPSDEQLKSGTASVVCLLNNFYPREAKVQWKVDNALQSGNSQESVTEQDSKDSTYSLSSTLTLSKADYEKHKVYACEVTHQGLSSPVTKSFNRGEC
notes: IgG4-PAA, Fab arm exchange; also called IAPB57 x CD3B219; IL1RAP x CD3
Average EC50, T-cell mediated cytotoxicity, ALL-SIL [1]: 4 pM | Average EC50, T-cell mediated cytotoxicity, HPB-ALL [1]: 8 pM | Average EC50, T-cell mediated cytotoxicity, LAMA-84 [1]: 1 pM | Average EC50, T-cell mediated cytotoxicity, MEG-01 [1]: 2 pM | Average EC50, SKNO-1 cytotoxicity in whole blood, 24 hour [2]: 1820 pM | Average EC50, SKNO-1 cytotoxicity in whole blood, 48 hour [2]: 1400 pM | EC50, SKNO-1 cytotoxicity in whole blood, donor 00201, 24 hour [2]: 3580 pM | EC50, SKNO-1 cytotoxicity in whole blood, donor 00201, 48 hour [2]: 703 pM | EC50, SKNO-1 cytotoxicity in whole blood, donor 00263, 24 hour [2]: 1500 pM | EC50, SKNO-1 cytotoxicity in whole blood, donor 00263, 48 hour [2]: 768 pM | EC50, SKNO-1 cytotoxicity in whole blood, donor 27050, 24 hour [2]: 1380 pM | EC50, SKNO-1 cytotoxicity in whole blood, donor 27050, 48 hour [2]: 3360 pM | EC50, SKNO-1 cytotoxicity in whole blood, donor 27060, 24 hour [2]: 1880 pM | EC50, SKNO-1 cytotoxicity in whole blood, donor 27060, 48 hour [2]: 1300 pM | EC50, SKNO-1 cytotoxicity in whole blood, donor 27067, 24 hour [2]: 912 pM | EC50, SKNO-1 cytotoxicity in whole blood, donor 27067, 48 hour [2]: 647 pM | EC50, SKNO-1 cytotoxicity in whole blood, donor 32771, 24 hour [2]: 1680 pM | EC50, SKNO-1 cytotoxicity in whole blood, donor 32782, 48 hour [2]: 1620 pM | mean EC50, cytotoxicity of OCI-AML5 cells in whole blood, 48 h [6]: 3130 pM
